Assay results from patent US20100098704A1 (CELLDEX THERAPEUTICS, published 2010).

T1: soluble recombinant human DEC-205 fusion protein (DEC-205 extracellular domain comprising all ten … (human))
T1 chain: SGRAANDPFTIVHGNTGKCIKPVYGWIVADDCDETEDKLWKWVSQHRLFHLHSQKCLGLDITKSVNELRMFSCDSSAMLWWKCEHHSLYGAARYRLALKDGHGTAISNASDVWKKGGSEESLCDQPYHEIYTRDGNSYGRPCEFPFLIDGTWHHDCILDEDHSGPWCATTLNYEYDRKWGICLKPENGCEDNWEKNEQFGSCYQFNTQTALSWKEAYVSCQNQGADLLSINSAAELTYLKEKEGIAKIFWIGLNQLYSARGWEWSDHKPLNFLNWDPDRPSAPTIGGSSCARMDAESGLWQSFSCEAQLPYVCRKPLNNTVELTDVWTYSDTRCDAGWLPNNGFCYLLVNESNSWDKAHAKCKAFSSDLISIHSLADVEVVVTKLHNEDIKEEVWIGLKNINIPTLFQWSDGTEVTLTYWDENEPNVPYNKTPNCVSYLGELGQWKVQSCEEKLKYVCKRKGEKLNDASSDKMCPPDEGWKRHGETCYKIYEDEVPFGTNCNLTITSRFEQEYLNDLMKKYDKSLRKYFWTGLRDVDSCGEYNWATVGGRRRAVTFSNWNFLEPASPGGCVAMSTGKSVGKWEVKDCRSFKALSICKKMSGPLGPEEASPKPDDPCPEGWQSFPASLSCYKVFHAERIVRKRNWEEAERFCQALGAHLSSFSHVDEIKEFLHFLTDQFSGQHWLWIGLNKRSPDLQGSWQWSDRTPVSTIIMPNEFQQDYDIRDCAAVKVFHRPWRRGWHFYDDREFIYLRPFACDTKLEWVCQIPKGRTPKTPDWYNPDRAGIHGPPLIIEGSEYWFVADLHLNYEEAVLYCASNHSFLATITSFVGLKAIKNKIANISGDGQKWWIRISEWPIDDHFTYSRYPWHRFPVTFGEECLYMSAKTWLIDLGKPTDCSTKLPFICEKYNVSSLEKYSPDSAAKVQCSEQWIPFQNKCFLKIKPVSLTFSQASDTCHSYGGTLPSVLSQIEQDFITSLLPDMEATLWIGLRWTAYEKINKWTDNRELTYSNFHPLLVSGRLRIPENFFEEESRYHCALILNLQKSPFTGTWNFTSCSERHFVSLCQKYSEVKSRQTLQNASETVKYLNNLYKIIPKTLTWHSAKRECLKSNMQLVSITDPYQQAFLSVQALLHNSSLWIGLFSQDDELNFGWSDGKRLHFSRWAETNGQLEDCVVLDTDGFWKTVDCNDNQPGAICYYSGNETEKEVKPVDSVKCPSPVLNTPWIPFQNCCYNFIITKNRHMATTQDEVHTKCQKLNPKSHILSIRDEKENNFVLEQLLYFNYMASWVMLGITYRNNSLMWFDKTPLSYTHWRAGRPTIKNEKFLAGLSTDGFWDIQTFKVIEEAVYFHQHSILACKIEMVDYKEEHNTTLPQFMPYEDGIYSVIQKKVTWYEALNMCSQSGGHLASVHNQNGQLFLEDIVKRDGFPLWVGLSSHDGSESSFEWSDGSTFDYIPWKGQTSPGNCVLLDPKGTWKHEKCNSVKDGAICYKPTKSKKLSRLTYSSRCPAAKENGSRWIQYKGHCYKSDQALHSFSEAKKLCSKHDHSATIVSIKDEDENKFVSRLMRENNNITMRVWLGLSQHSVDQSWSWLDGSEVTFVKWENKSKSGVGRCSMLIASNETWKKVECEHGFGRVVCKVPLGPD

B1: human anti-DEC-205 monoclonal antibody 3D6-2F4 (antibody, V domains shown)
VH: QVQLVESGGGVVQPGRSLRLSCAASGFIFSIYGMHWVRQAPGKGLEWVAVIWYDGSNKYYADSVKGRFTISRDNSKNTLYLQMNSLRAEDTAVYYCARAPHFDYWGQGTLVTVSS
VL: DIQMTQSPSSLSASVGDRVTITCRASQGISSWLAWYQQKPEKAPKSLIYAASSLQSGVPSRFSGSGSGTDFTLTISSLQPEDFATYYCQQYNSYPYTFGQGTKLEIK
notes: also called mAb #5
B2: human anti-DEC-205 monoclonal antibody 3G9-2D2 (antibody, V domains shown)
VH: QVQLVESGGGVVQPGRSLRLSCAASGFTFSNYGMYWVRQAPGKGLEWVAVIWYDGSNKYYADSVKGRFTISRDNSKNTLYLQMNSLRAEDTAVYYCARDLWGWYFDYWGQGTLVTVSS
VL: EIVLTQSPATLSLSPGERATLSCRASQSVSSYLAWYQQKPGQAPRLLIYDASNRATGIPARFSGSGSGTDFTLTISSLEPEDFAVYYCQQRRNWPLTFGGGTKVEIK
B3: human anti-DEC-205 monoclonal antibody 5A8-1F1 (antibody, V domains shown)
VH: QVQLVESGGGVVQPGRSLRLSCAASGFTFSTYGMHWVRQAPGKGLEWVAIIWYDGGNKYYADSVKGRFTISRDNSKNTLYLQMNSLRAEDTAVYYCARDFYWYFDLWGRGTLVTVSS
VL: EIVLTQSPATLSLSPGERATLSCRASQSVSSYLAWYQQKPGQAPRLLIYDASNRATGIPARFSGSGSGTDFTLTISSLEPEDFAVYYCQQRRTFGQGTKVEIK
B4: human anti-DEC-205 monoclonal antibody 3C7-3A3 (antibody, V domains shown)
VH: QVQLVESGGGVVQPGRSLRLSCAASGFTFSSYNMHWVRQAPGKGLEWVAFIWYDGSNKYYGDSVKGRFTISRDNSKNTLYLQMNSLRAEDTAVYYCAREELGIGWYFDLWGRGTLVTVSS
VL: EIVLTQSPATLSLSPGERATLSCRASQSVSSYLAWYQQKPGQAPRLLIYDASNRATGIPARFSGSGSGTDFTLTISSLEPEDFAVYYCQQRRTFGQGTKVEIK

Assays:
[1] = target: T1, soluble recombinant human DEC-205 …; experiment: SPR (Biacore 2000), DEC-205 fusion protein amine-coupled to CM5 chip, antibody flowed, 1:1 Langmuir fit, mean of two series
[2] = target: T2, human Dendritic and Epithelial Cell 205 receptor (DEC-205) expressed on cells (human, UniProt O60449 28-1722); experiment: flow cytometry, CHO-S cells expressing human DEC-205 against control CHO-S cells, saturating antibody, PE goat anti-human IgG Fc [A]
[3] = target: T2, human Dendritic and Epithelial Cell 205 …; experiment: flow cytometry, human monocyte-derived dendritic cells, saturating antibody, PE goat anti-human IgG Fc [C]
[4] = target: T2, human Dendritic and Epithelial Cell 205 …; experiment: flow cytometry, human monocyte-derived dendritic cells, saturating antibody, PE goat anti-human IgG Fc [D]
[5] = target: T2, human Dendritic and Epithelial Cell 205 …; experiment: flow cytometry, human monocyte-derived dendritic cells, saturating antibody, PE goat anti-human IgG Fc [F]

Binder | Ka [1] [M⁻¹] | Kd [1] [nM] | koff [1] [s⁻¹] | kon [1] [M⁻¹ s⁻¹] | binding result [2] | binding result [3] | binding result [4] | binding result [5]
B1 | 1.5e+10 | 0.08 | 0.00012 | 1.8e+06 | binds | – | – | –
B2 | 4.7e+09 | 0.24 | 0.00019 | 900000 | – | binds | – | –
B3 | 2.1e+09 | 1.5 | 0.0002 | 360000 | – | – | binds | –
B4 | 5.2e+08 | 5.6 | 0.00076 | 170000 | – | – | – | binds
